# IntAct's records for PubMed 19680263
# B1: Complement factor H (Homo sapiens), P08603 (parent)
# chain: MRLLAKIICLMLWAICVAEDCNELPPRRNTEILTGSWSDQTYPEGTQAIYKCRPGYRSLGNVIMVCRKGEWVALNPLRKCQKRPCGHPGDTPFGTFTLTGGNVFEYGVKAVYTCNEGYQLLGEINYRECDTDGWTNDIPICEVVKCLPVTAPENGKIVSSAMEPDREYHFGQAVRFVCNSGYKIEGDEEMHCSDDGFWSKEKPKCVEISCKSPDVINGSPISQKIIYKENERFQYKCNMGYEYSERGDAVCTESGWRPLPSCEEKSCDNPYIPNGDYSPLRIKHRTGDEITYQCRNGFYPATRGNTAKCTSTGWIPAPRCTLKPCDYPDIKHGGLYHENMRRPYFPVAVGKYYSYYCDEHFETPSGSYWDHIHCTQDGWSPAVPCLRKCYFPYLENGYNQNYGRKFVQGKSIDVACHPGYALPKAQTTVTCMENGWSPTPRCIRVKTCSKSSIDIENGFISESQYTYALKEKAKYQCKLGYVTADGETSGSITCGKDGWSAQPTCIKSCDIPVFMNARTKNDFTWFKLNDTLDYECHDGYESNTGSTTGSIVCGYNGWSDLPICYERECELPKIDVHLVPDRKKDQYKVGEVLKFSCKPGFTIVGPNSVQCYHFGLSPDLPICKEQVQSCGPPPELLNGNVKEKTKEEYGHSEVVEYYCNPRFLMKGPNKIQCVDGEWTTLPVCIVEESTCGDIPELEHGWAQLSSPPYYYGDSVEFNCSESFTMIGHRSITCIHGVWTQLPQCVAIDKLKKCKSSNLIILEEHLKNKKEFDHNSNIRYRCRGKEGWIHTVCINGRWDPEVNCSMAQIQLCPPPPQIPNSHNMTTTLNYRDGEKVSVLCQENYLIQEGEEITCKDGRWQSIPLCVEKIPCSQPPQIEHGTINSSRSSQESYAHGTKLSYTCEGGFRISEENETTCYMGKWSSPPQCEGLPCKSPPEISHGVVAHMSDSYQYGEEVTYKCFEGFGIDGPAIAKCLGEKWSHPPSCIKTDCLSLPSFENAIPMGEKKDVYKAGEQVTYTCATYYKMDGASNVTCINSRWTGRPTCRDTSCVNPPTVQNAYIVSRQMSKYPSGERVRYQCRSPYEMFGDEEVMCLNGNWTEPPQCKDSTGKCGPPPPIDNGDITSFPLSVYAPASSVEYQCQNLYQLEGNKRITCRNGQWSEPPKCLHPCVISREIMENYNIALRWTAKQKLYSRTGESVEFVCKRGYRLSSRSHTLRTTCWDGKLEYPTCAKR
# partner: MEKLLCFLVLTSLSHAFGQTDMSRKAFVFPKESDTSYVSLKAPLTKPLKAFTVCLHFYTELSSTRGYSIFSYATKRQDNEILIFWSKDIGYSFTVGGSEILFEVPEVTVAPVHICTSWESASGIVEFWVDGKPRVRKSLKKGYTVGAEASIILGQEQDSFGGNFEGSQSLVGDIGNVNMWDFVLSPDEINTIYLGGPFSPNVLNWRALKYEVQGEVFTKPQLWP
# Variants of: B1
# Conditions: with crp_human CRP
row,effect of a mutation on the interaction,Variant
1,decreasing interaction strength,R1210C
2,decreasing interaction strength,W1183L
3,decreasing interaction strength,R1215G
4,decreasing interaction strength,V1197A

# Variants of: B1
# Conditions: with crp_human CRP
# Remark: another data set of the same source
row,effect of a mutation on the interaction,Variant
1,disrupting interaction strength,R1203E;R1206E;R1210S;K1230S;R1231A

# Variants of: B1
# Conditions: with crp_human CRP
# Remark: another data set of the same source
row,effect of a mutation on the interaction,Variant
1,disrupting interaction strength,R1203E;R1206E;R1210S;K1230S;R1231A
